Molecular target: TROP-2 (EGP-1, epithelial glycoprotein-1) (human) (UniProt P09758)
Assay: cell-based or functional assay

Sequence of TROP-2 (EGP-1, epithelial glycoprotein-1) (human) (P09758 27-323): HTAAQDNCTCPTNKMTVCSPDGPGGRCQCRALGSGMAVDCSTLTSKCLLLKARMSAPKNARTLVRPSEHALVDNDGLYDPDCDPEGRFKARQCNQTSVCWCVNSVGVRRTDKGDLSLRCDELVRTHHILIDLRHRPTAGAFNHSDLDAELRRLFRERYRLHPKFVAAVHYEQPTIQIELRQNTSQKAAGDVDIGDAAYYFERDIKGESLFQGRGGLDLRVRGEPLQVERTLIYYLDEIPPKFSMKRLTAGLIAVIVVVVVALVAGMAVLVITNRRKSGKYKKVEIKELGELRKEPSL

ADCC, specific lysis of BxPC-3 target cells (PBMC effectors, effector to target ratio 100:1, 33.3 nM): 8.5%
B1: hRS7 (humanized anti-TROP-2 / anti-EGP-1 antibody), unconjugated IgG (antibody, INN chains, looked up, V domains shown)
VH: QVQLQQSGSELKKPGASVKVSCKASGYTFTNYGMNWVKQAPGQGLKWMGWINTYTGEPTYTDDFKGRFAFSLDTSVSTAYLQISSLKADDTAVYFCARGGFGSSYWYFDVWGQGSLVTVSS
VL: DIQLTQSPSSLSASVGDRVSITCKASQDVSIAVAWYQQKPGKAPKLLIYSASYRYTGVPDRFSGSGSGTDFTLTISSLQPEDFAVYYCQQHYITPLTFGAGTKVEIK

Reference: US20140219956A1
